Measurements: the nanobody polyreactivity screen of Harvey et al. (2022)

Test: yeast display, Sf9 membrane polyspecificity reagent, FACS + sequencing; frameworks hold sequencing errors
Summary of the method: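 Polyreactivity labels are assigned by the sorting gate from which each nanobody was recovered. The gates were low and high (top ~1%), set on anti-HA fluorescence for expression and streptavidin fluorescence for reagent binding. Before sorting, galactose-induced (36–48 hours) yeast display cells were stained for 1 hour at 4 °C with 10% biotinylated, detergent-solubilized Sf9 membrane reagent.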
With “QVQLEESGAGLVQAGGRHRLSCPASGFIFDWNAMGWYRQPPGKERELVAAISDDGDSTDYADSVKGRFTISRDNAKNTVYLQMNSLKPEDTAVYSCAANTERVYPCFSFGYWGQGTQVTVSS” the “polyreactivity (PSR sort gate)” value was “low polyreactivity”.
In the case of “QLQLVDSGGGVVQAGGSLRLSCAASGSTFSRYAMGWYRQAPGKEMELVAAISTRGGSTRYADSVKGRFTISRDNAKNTVYLQMYCRKPEDTAVYYGAALGQGRTSATSFVDYEYWGQGTQVTVSS”, the “polyreactivity (PSR sort gate)” value is reported as “high polyreactivity”.
For “QVHLVESGGGLVQAGGSLRLSCAASGSTFLANTMGWYRQAPGKERELVAAITRRGGSTRYADSVKGRFTISRDNAKNTVFLEMNSLKPEDTAVYYCAAPWFRDTRGYSLYDYWGQGTQVTVSS”, the “polyreactivity (PSR sort gate)” value was “high polyreactivity”.
For “QVQLVESGGGLVQAGGSLRLSCAASGRIFPKYAMGWYRQAPGKERELVATINSGTRTYADSVKGRFTISRDNAKNTVYLEMNSLKPEDTAVYYCARRGYYYDYWGQGTQVTVSS”, the “polyreactivity (PSR sort gate)” value was “high polyreactivity”.
For “QVQLVESGGGLVQAGGCLRLSCAASGFTFWWYAMGWYRQAPGKERELVAAISSGGSTNYADSVKGRFTLSRDNAKNTVYLQMNSLQPEDTAVYYCARRLWYSDRYSARWQYDYWGQVTQVTVSS”, the “polyreactivity (PSR sort gate)” value was “high polyreactivity”.
For “QVQLVESGGGLVQAGGSLRLSCAASGIIFKYYAMGWYRQAPGKERELVAAITGNGGSTYYADSVKGRFTISRDNAKNTVYLQMNSLKPEDTAVYYCATRWFAVHMYWGQGTQVTVSS”, the “polyreactivity (PSR sort gate)” value was “high polyreactivity”.
For “QVQLVESGGGLVQAGGSLRLSCAASGSTFEYNAMGWYRQAPGKEREFVAASSRTGSRTYYADSVKGRFTISRDNAKHTVYLQMNSLKPEDTAVYYCAVSVPYGMDYWGQGTQLTVSS”, the “polyreactivity (PSR sort gate)” value was “high polyreactivity”.
In the case of “QVQLVESGGGLVQAGGSLRLSCAASGRIFGVYAMGWYRQAPGKERELVAAITRRGGTTYYADSVKGRFTISRDNAKNTVYLQMNSLKPEDTAVYYCAAVFVTQSFIYDYYYWGQGTQVTVSS”, the “polyreactivity (PSR sort gate)” value is reported as “high polyreactivity”.
In the case of “QVQLVDSGGGLVQAGGSLRLSCAASGSTFIYYAMGWYRQAPGKEREFVAAISYRGGSTYYADSVKGRFTISRDNAKNTVYLQMNSLKPEDTAVYYCAASYRKWNDYWGQGTQVTVSS”, the “polyreactivity (PSR sort gate)” value is reported as “high polyreactivity”.
With “QVQLVESGGGLVQAGGSLRLSCAASGRIFDRYAMGWYRQAPGKERELVASITSSGGNTYYADSVKGRFTISRDNAKNTVYFQMNSLKPEDTAVYYCAKPQRVWQYGNYYYWGQGTQVTVSS” the “polyreactivity (PSR sort gate)” value was “high polyreactivity”.
For “QVQLVESGGCLVQAGGSLRLSCAASGIIFTYYAMGWYRQAPGKERELVARISSSGGRTYYADSVKGRFTISRDNAKNTVYLQMNSLKPEDTAVYYCAARVFSRPPQPGSPRGYRGFDYWGQGTQVTVSS”, the “polyreactivity (PSR sort gate)” value was “high polyreactivity”.
For “QVKLVESGGGLVQAGGSLRLSCAPSARIFDIYPLGWSRQAPGKERELVAGITSVGSTNYADSVKGRFTISRDNAKYTVYLQMTSLNPEDTAVYDCASVTSVHSEVDYWGQGTQVTVSS”, the “polyreactivity (PSR sort gate)” value was “low polyreactivity”.
With “PVQLVESGGGLVQAGGSLRLSCAACGRIFRYYAMGWYRQAPGKERELVAAISRSGGRTYYADSVKGRFTISRDNAKNTVYLEMNSLKPEDTAVYYCNALYYKYYPSRYDYWGLGTQVTVSS” the “polyreactivity (PSR sort gate)” value was “high polyreactivity”.
For “QVQLVESGGGLVQAGGSLRLSCAASGRIFWGNAMGWYRQAPGKEREFVAGITGIGGRTYYADSVKGRFTISRDNAKNTVYLQMNSLKPEDTAVYYCARTWAVSYGYAMDYWGQGTQVTVSS”, the “polyreactivity (PSR sort gate)” value was “low polyreactivity”.
In the case of “QVQLVESGGGLVQAGGSLRLSCAASGRIFFAYAMGWYRQAPGKEREFVAAISDNDGSTYYADSVKGRFTISRDNAKNTVYLQMNSLKPEDTAVYYCNADLGYVYDYWGQGTQVTVSS”, the “polyreactivity (PSR sort gate)” value is reported as “low polyreactivity”.
In the case of “QVQLVESGGCLVQAGGSLRLSCAASGRTFYFYAMGWYRQAPGKERELVASISWSGGRTNYADSVKGRFTSSRDNAKNTVYLQMNSLKPEDTAVHYCAARYVERHTDYYYWGQGTQVTVSS”, the “polyreactivity (PSR sort gate)” value is reported as “low polyreactivity”.
For “QVQLVESGGGLVQAGGSLRLSCAASGRTFWWYGMGWYRQAPGKDRELVAAITNGGSTNYADSVKGRFTISRDIAKNTVYLQMNSLKPEDTAVYYCAARTRSWYGGFYKYYYWGQGTQVTVSS”, the “polyreactivity (PSR sort gate)” value was “high polyreactivity”.
With “QVQLVESGGGLVQAGGSLRLSFAASGRIFSDNAMGWYRQAPGKERELVATINYSGGSTYYADSVKGRFTISRDNAKNTFYLQMNSLKPEDTAVYYCATRIPHRIIYYDYDYWGQGTQVTVSS” the “polyreactivity (PSR sort gate)” value was “low polyreactivity”.
In the case of “QVQLVESGGGVVQAGGSLRLSCAAYGSIFEANDMGWYRQAPGKERELVAAIDANTGSTYYADSVKGRFTISLDNAKNTVYLQMNSLKPEVTAVYYCNAQVYLQTAYDYWGQGTQVSVSS”, the “polyreactivity (PSR sort gate)” value is reported as “low polyreactivity”.
For “QVQLEESGGGLVQAGGSLRISCAASGRTFYVNAMGRSRQAPGKERELVAAIRYSDGRTYYADSVKGRFTISRDNAKNTVYLQMNSLKPEDTAVYYCAADTRFISRENYWGQGTQVTVSS”, the “polyreactivity (PSR sort gate)” value was “high polyreactivity”.
With “QVQLVESGGGLVQAGGSLRLSCAASGRTFGRYAMGWYRQAPGKERELVAAINKNGGSTFYADSVKGRFTISRDNAKNTVYLQMNSLKPEDTAVYYCNRTAYVRGYPPWGYDYWGQGTQVTVSS” the “polyreactivity (PSR sort gate)” value was “low polyreactivity”.
For “QVQLVESGGGLVQAGGSLRLSCAASGIILGSYAMGWYRQAPGTERELVAGITSGGGTYYADSVKGRFTISRDNAKNTVYLQMNSLKPEDTAVYYCAKLYFHYYRYGYWGQGTQVTVSS”, the “polyreactivity (PSR sort gate)” value was “low polyreactivity”.
For “QVQLVESGGGLVQAGGSLRLSCAASGSIFTSNAMGWYRQAPGKERELVAAISRRGSNTFYADSVKGRFTISRDNAKNTVYLQMNSLKPEDTAVYYCNTLVNAISYEYYYWGQGTQVNVSS”, the “polyreactivity (PSR sort gate)” value was “high polyreactivity”.
In the case of “QVQLVESGGGLVQAGGSLRLSCAASGRTFGNNAMGWYRQAPGKERELVAAISRSGGSTYYADSVKGRFTISRDNAKNTVYLQMNSLKPEDTAVYYCAARLYGGYDWGQGTQVTVSS”, the “polyreactivity (PSR sort gate)” value is reported as “high polyreactivity”.
In the case of “QVQLVESGGGLVQAGGSLRLSCAASGLTFYYYVMGWYRQAPGKERELVAAINATGGRTYYADSVKGRFTISRDNAKNTVYLQMNSLKPEDTAVYYCAAYSGFYASYDYWGQGTLVTVSS”, the “polyreactivity (PSR sort gate)” value is reported as “low polyreactivity”.
For “QVQLVESGGGLVQAGGSLRLSCAASGIIFGTYAMGWYRQAPGKERELVAAINWSGGSTYYADSVKGRFTISRDNAKNTVYLQMNSLKPEDTAVYYCAADGNEYDYWGQGTQVSVSS”, the “polyreactivity (PSR sort gate)” value was “low polyreactivity”.
With “QVQLVESGGGLVQAGGSLRLSCAASGFIFIRYAMGWYRQAPGKERELVAAISPSGGSTYYADSVKGRFTISRDNAKNTVYLQMNSLKPEDTAVYYCAREWRTYYYFWDHYYIYDYWGQGTQVTVSS” the “polyreactivity (PSR sort gate)” value was “high polyreactivity”.
For “QVQLVESGGGLVQAGGSLRLSCAASGITIKYYTMGWYRQANGKERELVAAISRSGGSTYYADSVKGRFTISLDNAKNTVYLQMNSMIPEDTAVYYCAAERVAYRGVTFPYGYWGQGTQVTVSS”, the “polyreactivity (PSR sort gate)” value was “high polyreactivity”.
With “QVQLVESGGGLVQAGGSLRLSCAASGRTFDYYSMGWYRQAPGKERELVAAIRGSGGSTYYADSVKGRFTISRDNAKNTVSLQMNSLKPEDTAVYYCATDPPYFRTPWEYDYWGQGTQVTVSS” the “polyreactivity (PSR sort gate)” value was “low polyreactivity”.
For “QVQLVESGGGLVQAGGSLRLSCAASGSIFTRYTMGWYSQAPGKERELVAVISDSSGRTYYADSVKGRFTISRDNAKNTVYLQMNSLKPEDTAVYYCAAEYSDIYEYWGQGTQVTVSS”, the “polyreactivity (PSR sort gate)” value was “low polyreactivity”.
In the case of “QVQLVESGGGLVQAGGSLRLSCAASGSTFSDYVMGWYRQAPGKEREFVAAISWTGGITYYADSVKGRFTISRDNAKNTVYLQMNSLKPEDTAVYYCAAKRKYYGNGYWGQGTQVTVSS”, the “polyreactivity (PSR sort gate)” value is reported as “high polyreactivity”.
In the case of “QVQLVESGGGLVQAGGSLRLSCAASGRTFKPYTMGWYRQAPGKERELVATISTGTTSTYYADSVKGRFTISRDNAKNTVYLQMNSLKPEDTAVYYCAADSDSPVTYQSEDALEYWGQGTQVTVSS”, the “polyreactivity (PSR sort gate)” value is reported as “low polyreactivity”.
For “QVQLVESGGGLVQAGGSLRLSCAASGSTFIFNTMGWYRQAPGNERELVAAIRLSGGSTYYADSVKGRFTLSRDNAKYTVYLQMNSLKPEDTAVYYCARRLATRGHTYDYWGQGTQVTVSS”, the “polyreactivity (PSR sort gate)” value was “low polyreactivity”.
For “QVQLVESGGGLVQAGGSLRLSCAASGRIFFANAMGWYRQAPGKERELVAAISWRGGSTYYADSVKGRFTISRDNAKNTFYLQMNSLKPEDTAVYYCNAVTRGYYHEMEYWGQGTQVTVSS”, the “polyreactivity (PSR sort gate)” value was “high polyreactivity”.
In the case of “QVQLVDSGGGLVQAGGRLRLSCAASGSTFIYNAMGWYRQAPGKERELVASISTSGGSTYYADSVKGRFTISRDNAKNTVYLQMNSLKPEDTAVYYCAKRYFFKYGYWGQGTQVTVSS”, the “polyreactivity (PSR sort gate)” value is reported as “high polyreactivity”.
For “QVQLVESGGGLVQAGGSLRLSCAASGITFVQYAMGWYRQAPGKERELVAAIRRGGSTSYADSVKGRFTISRDNAKNTVYLQMNSLKPEDTAVYYCARRYVWPITPLDVEYWGQGTQVTVSS”, the “polyreactivity (PSR sort gate)” value was “low polyreactivity”.
For “QVQLVDSAGGLVQAGGSLRLSCDAYGSNFGVNAMGWYRQAPGKERELVAIITSTTYADSVKGRFTISRDNAKNTVYLQMNSLKREDTAVYYCAIDQERVTKGRFYLLEYDWGHGTQVTVSS”, the “polyreactivity (PSR sort gate)” value was “low polyreactivity”.
In the case of “QVQLVESGGGLVQAGGSLRISCAASGSTFSSYAMGWYRQAPGKERELVAAISRSGDRTYYADSVKGRFTISRDNAEKTVYFQMNSLKPEDTAFYYCNTVYINRVTNLYDYWGQGTQVTVSS”, the “polyreactivity (PSR sort gate)” value is reported as “high polyreactivity”.
For “QVQLVESGGGLFQAGGSLRLSCAASGSTFYAYAIGWYRQAPGKERELVAAITLSGGSTYYADSVKGRFTISRDNAKNTVYLQMNSLKPEDTAVYYCAADQLRCGDYYWGQGTQVTVSS”, the “polyreactivity (PSR sort gate)” value was “high polyreactivity”.
With “QVQLVESWGGLVQAGGSLRLSCAASGSIFYSNAMGWYSQAPGKERELVAAIRTSAGSTYYADSVKGRFTISRDTAKNTVYLQMNSLKPEDTAVYYCAAVTTYYYYDVSDYAYEFYYWGQGTQVTVSS” the “polyreactivity (PSR sort gate)” value was “low polyreactivity”.
In the case of “QVQLVESGGGLVQAGGSLRLSCAASGFIFRYYAMGWYRQATGKEREFVAVISSTTGSTYYADSVKGRFTISRDNAKNTVYLQMNSLKPEDTAVYYCAAASRRRRPLKRMDYWGQGTQVTVSS”, the “polyreactivity (PSR sort gate)” value is reported as “low polyreactivity”.
For “QVQLVESGGGLVQAGGSLRLSCAASGFILERYAMGWYRQAPGKERELVAAISSVGNTNYADSVKGRFTISRDNAKNTVYFQMNSLKPEDTAVYYCAAEGAFPIYDYWGQGTQVTVSS”, the “polyreactivity (PSR sort gate)” value was “low polyreactivity”.
For “QVQLEESGGGLVQAGGSLRLSCAASGITFVTYAMGWYRQAPGKERELVAAISRSGGRTYYADSVKGRFTISRDNAKNTVYLQMNSLKPDDTAVYYCAAERKNKYDYWVQGTQVTVSS”, the “polyreactivity (PSR sort gate)” value was “high polyreactivity”.
